In patent US6955900B1, “Methods for producing polypeptide binding sites, monoclonal antibodies and compositions thereof” (The Scripps Research Institute, priority 1993, dated 2005):

Experiments:
αvβ3 = target: T1, αvβ3 (Homo sapiens, UniProt P05106+P06756); experiment: dissociation of 125I-ligand from purified αvβ3; details: two hour dissociation after four hours binding
T1 construct: human placentas were obtained, cut into small pieces and extracted; from tissue
Description: The binding of Fab 9 is shown as an example in this analysis, but its binding behavior was essentially identical to that of the MTF antibodies. The ability of ^125I-Fab 9 to dissociate from purified αvβ3 was compared to that of ^125I-vitronectin in purified ligand-receptor binding assays performed as described in Example 5B. Both ligands were incubated with purified αvβ3 for four hours. Then buffer containing radioligands was replaced with binding buffer lacking ligand to allow dissociation. An effort was also made to promote dissociation by adding 10 uM GRGDSP (SEQ ID NO 66) after the binding step. […] Following a two hour incubation to allow dissociation, buffer was removed and the amount of ^125I-ligand remaining bound to integrin was measured. The remaining bound ligand was compared to the amount of ligand bound at the beginning of the dissociation step.

M21 melanoma cells = experiment: adhesion of M21 melanoma cells to immobilized Fab or vitronectin; type: cell-based, human
Description: When Fab 9 that contained an RGD binding site was used in cell adhesion assays, it blocked the melanoma cell adhesion to immobilized vitronectin with an IC50 of 4 nM in contrast to the framework antibody pMT12 that had no effect on cell adhesion. […] This finding provides further evidence that Fab 9 is specific to beta 3 integrins. In similar assays, Fab 9 was compared to vitronectin in the ability to support cellular adhesion. Both proteins supported the binding of cells saturating at approximately 5 ug/ml of Fab or vitronectin.
This assay, performed as described in Example 4, was performed with whole cell adhesion assays using M21 melanoma cells because they adhere to RGD-ligands primarily via αvβ3. M21 cells were allowed to adhere to a concentration range from 1 to 10 ug/ml of immobilized Fab 9 and MTF-10.

T1 sequence (P06756 31-889 limits assumed): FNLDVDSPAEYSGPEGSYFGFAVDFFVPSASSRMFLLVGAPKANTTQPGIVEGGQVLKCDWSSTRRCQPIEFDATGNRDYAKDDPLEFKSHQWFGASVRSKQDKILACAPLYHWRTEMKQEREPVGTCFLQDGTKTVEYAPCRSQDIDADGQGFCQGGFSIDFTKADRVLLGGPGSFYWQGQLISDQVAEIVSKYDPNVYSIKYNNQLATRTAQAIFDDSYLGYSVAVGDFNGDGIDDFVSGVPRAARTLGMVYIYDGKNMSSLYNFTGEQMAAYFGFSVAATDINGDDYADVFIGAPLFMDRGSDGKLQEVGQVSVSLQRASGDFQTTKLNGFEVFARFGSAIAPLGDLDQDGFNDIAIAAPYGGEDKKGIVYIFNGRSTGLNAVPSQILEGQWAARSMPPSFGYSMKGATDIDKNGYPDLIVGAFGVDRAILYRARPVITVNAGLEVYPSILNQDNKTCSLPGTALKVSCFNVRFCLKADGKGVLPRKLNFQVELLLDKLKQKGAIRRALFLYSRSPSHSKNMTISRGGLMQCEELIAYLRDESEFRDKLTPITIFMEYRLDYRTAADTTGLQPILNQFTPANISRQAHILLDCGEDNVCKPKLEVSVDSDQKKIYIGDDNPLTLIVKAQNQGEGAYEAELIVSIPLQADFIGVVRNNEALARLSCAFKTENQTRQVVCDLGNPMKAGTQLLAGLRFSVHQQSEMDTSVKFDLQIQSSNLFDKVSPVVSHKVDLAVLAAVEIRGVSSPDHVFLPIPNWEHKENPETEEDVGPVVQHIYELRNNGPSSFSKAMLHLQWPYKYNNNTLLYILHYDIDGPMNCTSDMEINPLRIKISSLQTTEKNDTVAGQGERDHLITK
T1 sequence (P06756 891-1048 partner limits assumed): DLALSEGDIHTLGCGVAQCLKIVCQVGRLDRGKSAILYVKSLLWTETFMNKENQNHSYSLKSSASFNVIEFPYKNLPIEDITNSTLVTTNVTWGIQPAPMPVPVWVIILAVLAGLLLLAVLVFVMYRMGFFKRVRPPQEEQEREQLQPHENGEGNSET
T1 sequence (P05106 27-788): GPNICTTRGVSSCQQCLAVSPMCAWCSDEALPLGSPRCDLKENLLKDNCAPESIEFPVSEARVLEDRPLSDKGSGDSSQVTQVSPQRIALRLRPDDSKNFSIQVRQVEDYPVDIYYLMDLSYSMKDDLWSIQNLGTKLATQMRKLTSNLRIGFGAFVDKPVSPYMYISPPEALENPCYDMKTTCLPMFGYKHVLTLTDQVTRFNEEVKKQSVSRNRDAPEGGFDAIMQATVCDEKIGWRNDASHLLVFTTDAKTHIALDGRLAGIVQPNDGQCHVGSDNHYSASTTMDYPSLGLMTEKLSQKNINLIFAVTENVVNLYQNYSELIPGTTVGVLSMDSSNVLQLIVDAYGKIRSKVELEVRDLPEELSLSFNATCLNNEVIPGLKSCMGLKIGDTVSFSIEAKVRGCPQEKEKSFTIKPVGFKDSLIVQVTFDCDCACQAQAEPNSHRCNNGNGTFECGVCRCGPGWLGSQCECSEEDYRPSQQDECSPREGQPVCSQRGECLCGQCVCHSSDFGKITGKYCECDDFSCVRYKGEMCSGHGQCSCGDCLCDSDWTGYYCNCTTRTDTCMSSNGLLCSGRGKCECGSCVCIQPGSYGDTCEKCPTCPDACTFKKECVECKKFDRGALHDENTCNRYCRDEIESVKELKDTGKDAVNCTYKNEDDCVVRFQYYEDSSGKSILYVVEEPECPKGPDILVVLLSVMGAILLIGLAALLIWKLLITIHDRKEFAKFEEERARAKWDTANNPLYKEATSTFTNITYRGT

vitronectin: natural high affinity ligand of αvβ3
bound ligand that remained associated with αvβ3 (αvβ3): greater than 65%
coating concentration at which supported cell binding saturates (M21 melanoma cells): approximately 5 ug/ml
